The target in experiment [1] is cyno GITR (cGITR) (cynomolgus monkey). Briefly: Biacore. For orientation: Surface plasmon resonance follows binding to a sensor surface in real time, without labels.
For experiment [2] the target is unchanged. Briefly: Biacore. This is another data set of the same source.
Experiment [3] has as its target T1, FAS.
T1 construct: not shown: His tag, implied by the HisGrab nickel plate; The construct's exact limits are also wanting
T1 chain: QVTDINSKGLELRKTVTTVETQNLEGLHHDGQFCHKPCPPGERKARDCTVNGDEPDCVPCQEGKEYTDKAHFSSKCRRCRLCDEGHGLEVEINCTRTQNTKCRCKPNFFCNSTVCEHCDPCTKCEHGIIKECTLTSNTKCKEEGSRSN
Briefly: specificity ELISA on bacterial lysates with TNFRSF members, HisGrab nickel plate. The procedure: For the specificity ELISA, a crude cell lysate was made from bacteria expressing members of the TNFRSF family. To prevent nonspecific binding to the plate 50 μL of 5% BSA was added per mL of bacterial lysate. […] The plate was then rinsed three times with PBST, then MAB was diluted to 0.5 μg/mL in 10% FBS in PBS and 100 μL was added to each well. The plate was incubated for 1 hour at room temperature and then rinsed three times with PBST. Anti-human kappa antibody (Sigma #A7164) conjugated to HRP was diluted 1:5000 in 1:1 PBST: 10% FBS in PBS and 100 μL added to each well. The plate was incubated for 1 hour at room temperature, and then washed three times with PBST. 100 μL of SureBlue TMB substrate was added to each well and the plate was incubated for about 10 min at room temperature before stopping the reaction with 100 μL/well of 2N H₂SO₄.

For experiment [4], the target named is T2, human GITR on cells (human, UniProt Q9Y5U5 27-241).
T2 construct: also called hGITR; 293 cells stably transfected with human GITR
T2 sequence: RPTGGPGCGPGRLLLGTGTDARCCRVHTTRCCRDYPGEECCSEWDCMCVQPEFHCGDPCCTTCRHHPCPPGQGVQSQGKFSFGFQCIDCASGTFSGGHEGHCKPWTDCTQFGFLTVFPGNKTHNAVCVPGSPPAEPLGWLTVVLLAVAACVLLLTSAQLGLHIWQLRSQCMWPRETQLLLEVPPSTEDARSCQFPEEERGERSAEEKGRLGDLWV
Briefly: FACS competition on HEK293 cells stably expressing hGITR: human GITR ligand titrated first, then 4 nM MAB7 as the competitor read out with PE anti-human. The procedure: The ability of MAB to block ligand binding was assessed using HEK293 NFκB reporter parental cells and hGITR stable cells were used in competition binding assays and FACS analysis. Briefly, harvested cells were plated 1×10⁶ cells per mL, 100 μL per well to a 96 well round bottom FACS plate (Corning), then resuspended in 200 μL of cold FACS buffer (1×PBS+1% FBS-HI+0.1% sodium azide) per well. […] Plates were incubated for 1 hour on ice protected from light, cells washed, then prepared 4 nM isotype control or MAB solutions were prepared and added to appropriate wells at 100 μL per well and plates were incubated for 1 hour on ice protected from light, cells washed, then PE-conjugated goat-anti-human detection antibody (Jackson ImmunoResearch) prepared at 1:100 dilution in FACS buffer was added at 100 μL per well and plates were incubated for 30 minutes on ice protected from light. Cells were washed in FACS buffer then cells were fixed with 100 μL per well of BD CytoFix (BD Biosciences) and incubated for further 15 minutes on ice protected from light.

Numbering of substitutions follows the chain as printed.

B1: MAB4 (IgG1 kappa) (antibody, V domains shown)
VH: EVQLVESGGGLVQSGGSLRLSCAASGFSLSSYGVDWVRQAPGKGLEWVGVIWGGGGTYYASSLMGRFTISRDNSKNTLYLQMNSLRAEDTAVYYCAKHAYGHDGGFAMDYWGQGTLVTVSS
VL: EIVMTQSPATLSVSPGERATLSCRASESVSSNVAWYQQRPGQAPRLLIYGASNRATGIPARFSGSGSGTDFTLTISRLEPEDFAVYYCGQSYSYPFTFGQGTKLEIKR
In the case of B1, in experiment [1], binding was put at a Kd of 1.78 nM. For the same molecule, the “fold lower binding affinity for cyno GITR against human GITR” value in experiment [2] lay within 2 to 3 fold. The binding result in experiment [3] was “no binding (tested: 0.5 µg/mL (not on the sheet))”.

B2: MAB5 (IgG1 kappa) (antibody, V domains shown)
VH: B1 VH with V48L, A60T
VL: B1 VL
B2: binding in experiment [1] was characterised by a dissociation constant (Kd) of 1.87 nM. Besides, the “fold lower binding affinity for cyno GITR against human GITR” value in experiment [2] lay in the range of 2 to 3 fold. In addition, the binding result in experiment [3] is given as “no binding (tested: 0.5 µg/mL (not on the sheet))”.

B3: MAB7 (IgG1 kappa) (antibody, V domains shown)
VH: B1 VH with K97R
VL: B1 VL
notes: MAB4 with the glycation site KH changed to RH
Regarding B3, the equilibrium dissociation constant (Kd) in experiment [1] worked out at 3.67 nM.

B4: recombinant human GITR ligand (GITR-L) (ligand, UniProt Q9UNG2 52-177, looked up)
chain: ETAKEPCMAKFGPLPSKWQMASSEPPCVNKVSDWKLEILQNGLYLIYGQVAPNANYNDVAPFEVRLYKNKDMIQTLTNKSKIQNVGGTYELHVGDTIDLIFNSEHQVLKNNTYWGIILLANPQFIS
B4: the “IC50 (read off the curve)” value in experiment [4] was ~0.2 molar ratio (Human GITR Ligand to MAB7).

In general, Kd refers to the constant that tells how readily two partners part at equilibrium. Low readings indicate higher affinity, high ones lower affinity.
